According to US6972319B1, “Pituitary adenylate cyclase activating peptide (PACAP)receptor 3 (R3) agonists and their pharmacological methods of use” (priority 1999, dated 2005):
Changes are numbered by the printed parent chain.

B1: R3P124 (peptide)
peptide: HSDAVFTDNYTRLRKQMAAKKYLNSIMNKR
B2: R3P115 (peptide)
peptide: B1 peptide with A19Y, M27K
B3: R3P129 (peptide)
peptide: B1 peptide with M27S
B4: R3P114 (peptide)
peptide: B1 peptide with A19W, M27K
B5: R3P109 (peptide)
peptide: B1 peptide with A19Q, M27K
B6: R3P119 (peptide)
peptide: B1 peptide with M27E
B7: R3P122 (peptide)
peptide: B1 peptide with M27H
B8: R3P120 (peptide)
peptide: B1 peptide with M27F
B9: R3P118 (peptide)
peptide: B1 peptide with M27D
B10: R3P107 (peptide)
peptide: B1 peptide with A19N, M27K
B11: R3P11 (peptide)
peptide: HSDAVFTDNYTKLRKQLAAKKYLNDILNGGT
B12: R3P12 (peptide)
peptide: B11 peptide with K12R, L27K, N28K
B13: R3P125 (peptide)
peptide: B1 peptide with M27N
B14: R3P127 (peptide)
peptide: B1 peptide with M27Q
B15: R3P121 (peptide)
peptide: B1 peptide with M27G
B16: R3P116 (peptide)
peptide: B1 peptide with M27A
B17: R3P113 (peptide)
peptide: B1 peptide with A19V, M27K
B18: R3P111 (peptide)
peptide: B1 peptide with A19S, M27K
B19: R3P128 (peptide)
peptide: B1 peptide with M27R
B20: R3P108 (peptide)
peptide: B1 peptide with A19P, M27K
B21: R3P110 (peptide)
peptide: B1 peptide with A19R, M27K
B22: R3P126 (peptide)
peptide: B1 peptide with M27P

These binders were tested against T1, PACAP-R3 (human, UniProt P41587 24-438) (assay: cell-based or functional assay).
T1 sequence (looked up): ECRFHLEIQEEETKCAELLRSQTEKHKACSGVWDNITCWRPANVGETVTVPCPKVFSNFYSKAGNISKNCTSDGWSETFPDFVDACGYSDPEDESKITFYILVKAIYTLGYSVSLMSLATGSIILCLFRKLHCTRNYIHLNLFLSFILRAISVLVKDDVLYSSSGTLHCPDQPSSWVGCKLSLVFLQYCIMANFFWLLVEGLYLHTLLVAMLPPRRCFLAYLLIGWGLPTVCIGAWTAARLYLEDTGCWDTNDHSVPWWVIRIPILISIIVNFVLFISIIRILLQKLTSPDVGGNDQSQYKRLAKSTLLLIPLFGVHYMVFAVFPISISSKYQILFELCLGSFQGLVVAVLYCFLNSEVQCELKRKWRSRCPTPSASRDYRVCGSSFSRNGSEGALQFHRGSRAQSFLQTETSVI

Binder	R3 EC50	R3 Selectivity
B1	0.2 nM	
B2	6 nM	50
B3	1 nM	50
B4	2 nM	10
B5	10 nM	100
B6	0.5 nM	30
B7	0.2 nM	50
B8	0.2 nM	50
B9	0.5 nM	30
B10	200 nM	
B11	3 nM	3
B12	0.5 nM	> 200
B13	2 nM	30
B14	0.5 nM	600
B15	1 nM	50
B16	1 nM	20
B17	0.3 nM	
B18	3 nM	300
B19	0.3 nM	200
B20	300 nM	3
B21	0.5 nM	200
B22	1 nM	200
